Substitutions are numbered along the chain they refer to.
T1: human DR4 (Death Receptor 4), cell surface expressed on human tumor cell lines (human, UniProt O00220 24-468)
T1 construct: also called TNFRSF10A; TRAIL-R1
T1 sequence: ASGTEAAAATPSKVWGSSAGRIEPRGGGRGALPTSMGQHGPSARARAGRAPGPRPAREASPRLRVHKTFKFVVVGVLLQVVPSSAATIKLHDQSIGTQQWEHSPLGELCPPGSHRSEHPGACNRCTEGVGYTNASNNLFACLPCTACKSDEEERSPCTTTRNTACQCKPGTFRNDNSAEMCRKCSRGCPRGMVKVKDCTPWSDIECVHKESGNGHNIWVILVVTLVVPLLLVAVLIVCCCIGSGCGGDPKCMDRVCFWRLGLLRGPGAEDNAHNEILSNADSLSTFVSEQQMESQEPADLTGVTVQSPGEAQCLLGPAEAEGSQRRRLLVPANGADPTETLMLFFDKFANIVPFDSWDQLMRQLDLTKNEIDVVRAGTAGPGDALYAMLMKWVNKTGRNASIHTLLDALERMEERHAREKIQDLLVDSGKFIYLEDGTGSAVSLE

T2: human FAPα (Fibroblast activation protein alpha), cell surface expressed (human, UniProt Q12884 1-760)
T2 construct: Endogenous on human lung fibroblasts and CAFs
T2 sequence: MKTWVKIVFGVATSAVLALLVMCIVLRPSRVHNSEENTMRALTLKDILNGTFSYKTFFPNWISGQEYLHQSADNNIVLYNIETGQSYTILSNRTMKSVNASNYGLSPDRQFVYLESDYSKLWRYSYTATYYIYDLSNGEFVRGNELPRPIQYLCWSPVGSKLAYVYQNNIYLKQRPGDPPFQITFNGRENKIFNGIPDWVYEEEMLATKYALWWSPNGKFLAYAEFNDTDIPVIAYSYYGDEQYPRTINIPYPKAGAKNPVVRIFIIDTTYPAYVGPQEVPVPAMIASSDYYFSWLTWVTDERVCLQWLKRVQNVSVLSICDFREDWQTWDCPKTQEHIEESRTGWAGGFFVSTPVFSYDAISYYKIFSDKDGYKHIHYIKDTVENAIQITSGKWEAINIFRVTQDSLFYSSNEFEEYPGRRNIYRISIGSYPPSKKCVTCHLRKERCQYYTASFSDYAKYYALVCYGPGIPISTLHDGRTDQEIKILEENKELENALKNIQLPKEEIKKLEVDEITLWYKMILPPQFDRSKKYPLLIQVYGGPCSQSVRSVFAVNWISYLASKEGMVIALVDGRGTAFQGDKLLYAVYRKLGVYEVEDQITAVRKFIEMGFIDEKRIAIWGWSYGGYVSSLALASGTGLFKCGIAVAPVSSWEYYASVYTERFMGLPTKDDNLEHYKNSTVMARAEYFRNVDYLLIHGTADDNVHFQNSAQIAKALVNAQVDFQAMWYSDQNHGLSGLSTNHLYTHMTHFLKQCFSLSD

B1: IgG1-DR4-T1014A04-FEAR (antibody, V domains shown)
VH: EVQLVQSGADVKRPGASVKVSCKISGDSFNAYFIHWVRQAPGQGLEWMGWFNPDSGTADSAQKFHGRVTMTRDTSSSTAFLELSRLRSDDTAVYYCVRQHRGNTFAPWGRGTMVTVSS
VL: QSVLTQPPSASGSPGQSVTISCTGTTSDVGGYNYVSWYQQHPGKAPKLMIYGVNQRPSGVPDRFSGSKSGNTASLTVSGLQAEDEADYYCSSYAGSNNWVFGGGTKLTVLG
notes: Prior art DR4 clone (US 7,361,341 B2)
B2: IgG1-FAPα-FEAL (antibody)
heavy: EVQLLESGGGLVQPGGSPRLSCEASGFTFSSYALSWVRQAPGKGLEWVSAISGSGGGRYYADSVKGRFTISRDNSKNTLFLQMNSLRAEDTAVYYCAKEGYSSSGTYWDHWGQGTLVTVSSASTKGPSVFPLAPSSKSTSGGTAALGCLVKDYFPEPVTVSWNSGALTSGVHTFPAVLQSSGLYSLSSVVTVPSSSLGTQTYICNVNHKPSNTKVDKRVEPKSCDKTHTCPPCPAPEFEGGPSVFLFPPKPKDTLMISRTPEVTCVVVAVSHEDPEVKFNWYVDGVEVHNAKTKPREEQYNSTYRVVSVLTVLHQDWLNGKEYKCKVSNKALPAPIEKTISKAKGQPREPQVYTLPPSREEMTKNQVSLTCLVKGFYPSDIAVEWESNGQPENNYKTTPPVLDSDGSFLLYSKLTVDKSRWQQGNVFSCSVMHEALHNHYTQKSLSLSPG
light: AIQMTQSPSSVSASVGDRVTITCRASQGVSSWLAWYQQKPGRAPKLLIYVASTLQSGVPSRFSGSGSGTDFTLTINSLQPEDFATYYCQQANSFPPTFGQGTRLEMKRTVAAPSVFIFPPSDEQLKSGTASVVCLLNNFYPREAKVQWKVDNALQSGNSQESVTEQDSKDSTYSLSSTLTLSKADYEKHKVYACEVTHQGLSSPVTKSFNRGEC
B3: BisG1-b12-FEAL/DR4-chCTB007-FEAR (bispecific antibody, human IgG1, kappa)
heavy 1: QVQLVQSGAEVKKPGASVKVSCQASGYRFSNFVIHWVRQAPGQRFEWMGWINPYNGNKEFSAKFQDRVTFTADTSANTAYMELRSLRSADTAVYYCARVGPYSWDDSPQDNYYMDVWGKGTTVIVSSASTKGPSVFPLAPSSKSTSGGTAALGCLVKDYFPEPVTVSWNSGALTSGVHTFPAVLQSSGLYSLSSVVTVPSSSLGTQTYICNVNHKPSNTKVDKRVEPKSCDKTHTCPPCPAPEFEGGPSVFLFPPKPKDTLMISRTPEVTCVVVAVSHEDPEVKFNWYVDGVEVHNAKTKPREEQYNSTYRVVSVLTVLHQDWLNGKEYKCKVSNKALPAPIEKTISKAKGQPREPQVYTLPPSREEMTKNQVSLTCLVKGFYPSDIAVEWESNGQPENNYKTTPPVLDSDGSFLLYSKLTVDKSRWQQGNVFSCSVMHEALHNHYTQKSLSLSPG
light 1: EIVLTQSPGTLSLSPGERATFSCRSSHSIRSRRVAWYQHKPGQAPRLVIHGVSNRASGISDRFSGSGSGTDFTLTITRVEPEDFALYYCQVYGASSYTFGQGTKLERKRTVAAPSVFIFPPSDEQLKSGTASVVCLLNNFYPREAKVQWKVDNALQSGNSQESVTEQDSKDSTYSLSSTLTLSKADYEKHKVYACEVTHQGLSSPVTKSFNRGEC
heavy 2: EVQLQQSGAELVKPGASVKLSCTASGFNIKDTYMHWVKQRPEQGLEWIGRIDPANGNTKYDPKFQGKATITADTSSNTAYLQLSSLTSEDTAVYYCAYYYVSNAWFTYWGQGTLVTVSAASTKGPSVFPLAPSSKSTSGGTAALGCLVKDYFPEPVTVSWNSGALTSGVHTFPAVLQSSGLYSLSSVVTVPSSSLGTQTYICNVNHKPSNTKVDKRVEPKSCDKTHTCPPCPAPEFEGGPSVFLFPPKPKDTLMISRTPEVTCVVVAVSHEDPEVKFNWYVDGVEVHNAKTKPREEQYNSTYRVVSVLTVLHQDWLNGKEYKCKVSNKALPAPIEKTISKAKGQPREPQVYTLPPSREEMTKNQVSLTCLVKGFYPSDIAVEWESNGQPENNYKTTPPVLDSDGSFFLYSRLTVDKSRWQQGNVFSCSVMHEALHNHYTQKSLSLSPG
light 2: DIQMTQSPASLSVSVGETVTITCRASENIYSNLEWYQQKQGKSPQLLVYAATNLADGVPSRFSGSGSGTQYSLKINSLQSEDFGSYYCQHFWGTWTFGGGTKLEIKRTVAAPSVFIFPPSDEQLKSGTASVVCLLNNFYPREAKVQWKVDNALQSGNSQESVTEQDSKDSTYSLSSTLTLSKADYEKHKVYACEVTHQGLSSPVTKSFNRGEC
notes: Fab-arm exchange of IgG1-b12-FEAL and IgG1-DR4-chCTB007-FEAR
B4: BisG1-FAP5-FEAL/b12-FEAR (bispecific antibody, human IgG1, kappa)
heavy 1: QVQLQQSGAELARPGASVNLSCLASGYTFTNNGINWLKQRTGQGLEWIGEIYPRSTNTLYNEKFKGKATLTADRSSNTAYMELRSLTSEDSAVYFCARTLTAPFAFWGQGTLVTVSSASTKGPSVFPLAPSSKSTSGGTAALGCLVKDYFPEPVTVSWNSGALTSGVHTFPAVLQSSGLYSLSSVVTVPSSSLGTQTYICNVNHKPSNTKVDKRVEPKSCDKTHTCPPCPAPEFEGGPSVFLFPPKPKDTLMISRTPEVTCVVVAVSHEDPEVKFNWYVDGVEVHNAKTKPREEQYNSTYRVVSVLTVLHQDWLNGKEYKCKVSNKALPAPIEKTISKAKGQPREPQVYTLPPSREEMTKNQVSLTCLVKGFYPSDIAVEWESNGQPENNYKTTPPVLDSDGSFLLYSKLTVDKSRWQQGNVFSCSVMHEALHNHYTQKSLSLSPG
light 1: QIVLTQSPAIMSASPGELVTMTCSASSGVNFMHWYQQLSGTSPKRWIFDTSKLASGVPARFSGSGSGTSYSLTISSMEAEDAATYYCQQWSFNPPTFGGGTKLEIKRTVAAPSVFIFPPSDEQLKSGTASVVCLLNNFYPREAKVQWKVDNALQSGNSQESVTEQDSKDSTYSLSSTLTLSKADYEKHKVYACEVTHQGLSSPVTKSFNRGEC
heavy 2: B3 heavy 1 with L415F, K419R
light 2: B3 light 1
notes: Fab-arm exchange of IgG1-FAP5-FEAL and IgG1-b12-FEAR

What was measured:
[1] = molecular target: T1, human DR4 (Death Receptor 4), cell …; experiment: flow cytometry, MDA-MB-231 cells, N = 2
[2] = molecular target: T1, human DR4 (Death Receptor 4), cell …; experiment: flow cytometry, MDA-MB-231 cells, N = 1
[3] = molecular target: T1, human DR4 (Death Receptor 4), cell …; experiment: flow cytometry, MDA-MB-231 cells, average ± SEM
[4] = molecular target: T2, human FAPα (Fibroblast activation …); experiment: flow cytometry, human lung fibroblasts, n = 1
Protocol: (§1) Human lung fibroblasts and CAFs (50,000 cells/well) were seeded in 96-Well round bottom plates (Greiner Bio-one, Cat #650101). Antibody dilutions were prepared using fluorescence-activated cell sorting (FACS) buffer, consisting of phosphate buffer saline (PBS, Lonza, Cat #BE17-517Q)+1% Bovine Serum Albumin (BSA, Roche, Cat #10735086001)+0.02% Sodium Azide (Bio-World, Cat #41920044-3). Plates were centrifuged, supernatant was removed, cells were resuspended in 50 μL of human Fc Block (BD, Cat #564220, diluted 1:100 in FACS buffer) and 50 μL of viability stain TO-PRO-3 Iodide (Thermo Fisher, Cat #T3605, diluted 1: 25,000 in FACS buffer), and incubated for 15 min at 4° C. Plates were washed three times with FACS buffer. Plates were centrifuged, supernatant was removed, cells were resuspended in 50 μL of antibody dilutions (concentration range 90-0.0005 μg/mL, three-fold dilution steps using FACS buffer) of BisG1-FAPα-FERL/DR4-FERR, BisG1-FAPα-FERL/b12-FERR, BisG1-b12-FERL/b12-FERR (top six concentrations only for CAFs culture) or IgG1-FAPα-FERL (top four concentrations only for CAFs culture) and incubated for 30 min at 4° C. Cells were washed three times with FACS buffer and resuspended in 50 μL of Fluorescein isothiocyanate (FITC)-labeled polyclonal antibody goat anti-mouse IgG1 (Jackson Immuno Research, Cat #109-096-097, diluted 1:100 in FACS buffer). After 30 min incubation at 4° C., cells were washed twice with FACS buffer and resuspended in FACS buffer. Antibody binding to viable cells (TO-PRO-3 negative) was analyzed by flow cytometry on a FACSCelesta™ (BD biosciences) and data were processed using FlowJo_v10.8.1 (FlowJo LLC). Geomean fluorescence intensity, gMFI, was determined and visualized using GraphPad Prism. Binding curves were analyzed using nonlinear regression analysis. The concentration (pg/mL) at which 50% of the maximal effect was observed (EC₅₀) was derived from the fitted curves.
(§2) Binding of FAPα-targeting monoclonal antibody clones, IgG1-FAPα-FEAL and IgG1-FAP5-FEAL, and bispecific antibodies carrying a binding arm derived from the two FAPα-binding clones (BisG1-FAPα-FEAL/b12-FEAR and BisG1-FAP5-FEAL/b12-FEAR) to human lung fibroblasts, which endogenously express FAPα, was compared and analyzed by flow cytometry.

[5] = molecular target: T2, human FAPα (Fibroblast activation …); experiment: flow cytometry, human lung fibroblasts, n = 2
Protocol: as §1, with “After 30 min incubation at 4° C., cells were washed twice with FACS buffer and resuspended in FACS buffer.” left out, “The concentration (pg/mL) at which 50% of the maximal effect was observed (EC₅₀) was derived from the fitted curves.” left out
as §2

| Binder | EC50 [1] | Max MFI (at 90 µg/mL) [1] | EC50 [2] | Max MFI (at 90 µg/mL) [2] | EC50 [3] | Max MFI (at 90 µg/mL) [3] | EC50 [4] | EC50 [5] |
| --- | --- | --- | --- | --- | --- | --- | --- | --- |
| B1 | 2.04 µg/mL | 1610 MFI | 0.45 µg/mL | 953 MFI | 1.25 µg/mL | 1280 MFI |  |  |
| B2 |  |  |  |  |  |  | 0.014 µg/mL |  |
| B3 | 2.68 µg/mL | 2160 MFI | 1.61 µg/mL | 2950 MFI | 2.14 µg/mL | 2550 MFI |  |  |
| B4 |  |  |  |  |  |  | 0.58 µg/mL | 0.62 µg/mL |

— patent US20250002610A1 (Genmab, published 2025)
